For test [1], the target named is T1, MSH2-MSH3 (MutSβ), purified (human, UniProt P43246 1-934; P20585 1-1137).
T1 construct: MSH2, human, full length; MSH3, human, full length; Purified on a HisTrap HP column; also called MSH2-MSH3 heterodimer; source: Hi5 insect cells (baculovirus), purified (HisTrap HP, Superdex 200)
Kind of test: co-IP; in vitro immunoprecipitation: purified first protein on antibody-conjugated Dynabead protein G, washed with buffer X, second purified protein added for 1 h; western blot. The note with it: both partners purified. (Immunoblotting shows a protein as a band on a membrane.)

For test [2], the target named is T2, MSH2-MSH6 (MutSα), purified (human, UniProt P43246 1-934; P52701 1-1360).
T2 construct: MSH2, human, full length; MSH6, human, full length; source: Hi5 insect cells (baculovirus), purified (HiTrap Heparin HP, HiTrap Q HP, Superdex 200)
The test is described as follows: native gel or EMSA; 4 μM or 8 μM SMARCAD1 incubated with 1 nM Cy5-labeled 40 bp homoduplex, GT mismatch or 58 bp flap DNA in buffer H with 1 mM ATP, then MSH2-MSH6 titrated, 5 min. The note with it: both partners purified. (A gel shift assay detects complexes by their altered migration in electrophoresis.)

T2 sequence (P43246 whole entry, chain 1 of 2): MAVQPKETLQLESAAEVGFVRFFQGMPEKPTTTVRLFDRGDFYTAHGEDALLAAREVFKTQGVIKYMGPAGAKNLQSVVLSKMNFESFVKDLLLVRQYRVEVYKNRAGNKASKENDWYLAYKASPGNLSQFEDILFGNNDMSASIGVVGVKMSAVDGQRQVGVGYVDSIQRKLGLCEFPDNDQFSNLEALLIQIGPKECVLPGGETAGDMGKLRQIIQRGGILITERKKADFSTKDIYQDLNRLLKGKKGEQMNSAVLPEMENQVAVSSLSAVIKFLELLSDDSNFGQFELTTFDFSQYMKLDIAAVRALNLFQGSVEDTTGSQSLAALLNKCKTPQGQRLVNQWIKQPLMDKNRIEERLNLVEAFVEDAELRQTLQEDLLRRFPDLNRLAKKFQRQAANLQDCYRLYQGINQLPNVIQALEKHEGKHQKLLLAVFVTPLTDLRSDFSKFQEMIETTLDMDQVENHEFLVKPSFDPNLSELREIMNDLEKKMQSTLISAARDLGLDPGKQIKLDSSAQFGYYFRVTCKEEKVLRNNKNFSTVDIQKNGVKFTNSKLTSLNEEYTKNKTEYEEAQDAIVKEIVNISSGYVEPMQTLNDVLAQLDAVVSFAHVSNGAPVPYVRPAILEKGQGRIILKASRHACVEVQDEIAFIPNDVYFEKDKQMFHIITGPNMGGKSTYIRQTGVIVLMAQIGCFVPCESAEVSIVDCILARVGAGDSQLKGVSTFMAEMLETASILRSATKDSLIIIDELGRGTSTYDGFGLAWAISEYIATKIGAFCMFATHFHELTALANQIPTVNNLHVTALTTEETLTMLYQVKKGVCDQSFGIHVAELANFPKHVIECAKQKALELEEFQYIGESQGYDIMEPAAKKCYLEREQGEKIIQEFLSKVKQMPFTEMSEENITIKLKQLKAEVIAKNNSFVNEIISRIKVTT
T2 sequence (P52701 whole entry, chain 2 of 2): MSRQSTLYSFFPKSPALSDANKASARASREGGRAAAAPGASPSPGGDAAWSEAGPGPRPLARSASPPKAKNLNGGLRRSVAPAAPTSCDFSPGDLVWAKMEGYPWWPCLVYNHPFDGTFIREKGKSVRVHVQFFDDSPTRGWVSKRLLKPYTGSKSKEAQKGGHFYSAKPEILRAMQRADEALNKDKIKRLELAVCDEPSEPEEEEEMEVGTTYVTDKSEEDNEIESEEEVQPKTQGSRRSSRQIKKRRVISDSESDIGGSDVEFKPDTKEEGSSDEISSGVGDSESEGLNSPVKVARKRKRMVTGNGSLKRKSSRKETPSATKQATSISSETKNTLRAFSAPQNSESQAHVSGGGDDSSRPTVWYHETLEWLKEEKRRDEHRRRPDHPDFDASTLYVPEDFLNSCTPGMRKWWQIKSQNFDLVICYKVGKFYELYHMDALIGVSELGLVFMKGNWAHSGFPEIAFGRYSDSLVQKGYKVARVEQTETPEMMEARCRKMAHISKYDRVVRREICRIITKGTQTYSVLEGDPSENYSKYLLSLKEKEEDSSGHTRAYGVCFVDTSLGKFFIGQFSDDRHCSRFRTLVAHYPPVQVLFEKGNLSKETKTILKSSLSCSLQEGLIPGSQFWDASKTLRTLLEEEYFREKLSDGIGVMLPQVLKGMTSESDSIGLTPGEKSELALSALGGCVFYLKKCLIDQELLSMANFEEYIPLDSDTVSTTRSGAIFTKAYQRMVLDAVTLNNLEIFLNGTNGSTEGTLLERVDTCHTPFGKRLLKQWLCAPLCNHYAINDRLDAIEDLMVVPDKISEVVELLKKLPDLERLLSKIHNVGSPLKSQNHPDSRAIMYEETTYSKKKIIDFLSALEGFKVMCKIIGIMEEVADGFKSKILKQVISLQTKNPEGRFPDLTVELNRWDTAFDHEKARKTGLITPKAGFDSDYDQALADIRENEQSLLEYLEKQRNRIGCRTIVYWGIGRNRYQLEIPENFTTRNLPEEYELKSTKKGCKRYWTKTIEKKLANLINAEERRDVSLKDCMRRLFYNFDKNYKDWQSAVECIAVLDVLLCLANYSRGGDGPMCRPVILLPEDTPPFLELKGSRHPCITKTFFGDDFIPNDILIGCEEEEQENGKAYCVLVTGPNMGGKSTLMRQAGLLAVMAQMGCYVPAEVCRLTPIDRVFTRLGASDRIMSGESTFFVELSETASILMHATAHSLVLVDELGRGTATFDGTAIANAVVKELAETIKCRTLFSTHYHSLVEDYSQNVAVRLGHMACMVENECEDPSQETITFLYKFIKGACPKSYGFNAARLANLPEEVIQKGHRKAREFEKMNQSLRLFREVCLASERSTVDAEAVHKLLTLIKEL
T1 sequence (P43246 whole entry, chain 1 of 2): as the sequence (P43246 whole entry, chain 1 of 2) above
T1 sequence (P20585 whole entry, chain 2 of 2): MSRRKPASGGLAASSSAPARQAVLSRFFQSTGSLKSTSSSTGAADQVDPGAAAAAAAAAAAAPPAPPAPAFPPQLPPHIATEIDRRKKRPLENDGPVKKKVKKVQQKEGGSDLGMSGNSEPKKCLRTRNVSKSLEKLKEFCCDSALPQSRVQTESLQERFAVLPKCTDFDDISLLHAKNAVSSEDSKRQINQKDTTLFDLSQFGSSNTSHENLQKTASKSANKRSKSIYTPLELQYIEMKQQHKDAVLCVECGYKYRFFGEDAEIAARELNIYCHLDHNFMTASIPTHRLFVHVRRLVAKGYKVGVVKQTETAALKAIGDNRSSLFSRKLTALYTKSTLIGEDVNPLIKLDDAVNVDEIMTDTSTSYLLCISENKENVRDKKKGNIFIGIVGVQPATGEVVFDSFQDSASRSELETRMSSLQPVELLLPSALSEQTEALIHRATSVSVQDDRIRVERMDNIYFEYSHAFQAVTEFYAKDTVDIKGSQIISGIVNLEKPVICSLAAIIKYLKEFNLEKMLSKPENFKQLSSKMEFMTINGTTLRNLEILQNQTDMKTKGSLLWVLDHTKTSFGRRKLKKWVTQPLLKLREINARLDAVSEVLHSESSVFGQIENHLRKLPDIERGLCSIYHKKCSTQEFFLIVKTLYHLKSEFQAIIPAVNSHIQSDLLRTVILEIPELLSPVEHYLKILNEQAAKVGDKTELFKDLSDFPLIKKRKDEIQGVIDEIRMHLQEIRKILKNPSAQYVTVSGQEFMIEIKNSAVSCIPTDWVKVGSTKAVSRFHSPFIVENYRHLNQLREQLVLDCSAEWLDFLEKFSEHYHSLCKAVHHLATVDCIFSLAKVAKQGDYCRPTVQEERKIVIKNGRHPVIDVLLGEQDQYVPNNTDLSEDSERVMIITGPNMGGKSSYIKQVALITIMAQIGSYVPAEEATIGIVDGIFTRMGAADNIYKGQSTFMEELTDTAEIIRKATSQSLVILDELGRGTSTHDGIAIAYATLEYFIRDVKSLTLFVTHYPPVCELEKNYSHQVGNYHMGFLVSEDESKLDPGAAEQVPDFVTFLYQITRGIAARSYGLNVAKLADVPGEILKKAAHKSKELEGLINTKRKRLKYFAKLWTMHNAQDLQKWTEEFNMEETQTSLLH

B1: SMARCAD1, purified (enzyme, human, UniProt Q9H4L7 1-1026, looked up)
chain: MNLFNLDRFRFEKRNKIEEAPEATPQPSQPGPSSPISLSAEEENAEGEVSRANTPDSDITEKTEDSSVPETPDNERKASISYFKNQRGIQYIDLSSDSEDVVSPNCSNTVQEKTFNKDTVIIVSEPSEDEESQGLPTMARRNDDISELEDLSELEDLKDAKLQTLKELFPQRSDNDLLKLIESTSTMDGAIAAALLMFGDAGGGPRKRKLSSSSEPYEEDEFNDDQSIKKTRLDHGEESNESAESSSNWEKQESIVLKLQKEFPNFDKQELREVLKEHEWMYTEALESLKVFAEDQDMQYVSQSEVPNGKEVSSRSQNYPKNATKTKLKQKFSMKAQNGFNKKRKKNVFNPKRVVEDSEYDSGSDVGSSLDEDYSSGEEVMEDGYKGKILHFLQDASIGELTLIPQCSQKKAQKITELRPFNSWEALFTKMSKTNGLSEDLIWHCKTLIQERDVVIRLMNKCEDISNKLTKQVTMLTGNGGGWNIEQPSILNQSLSLKPYQKVGLNWLALVHKHGLNGILADEMGLGKTIQAIAFLAYLYQEGNNGPHLIVVPASTIDNWLREVNLWCPTLKVLCYYGSQEERKQIRFNIHSRYEDYNVIVTTYNCAISSSDDRSLFRRLKLNYAIFDEGHMLKNMGSIRYQHLMTINANNRLLLTGTPVQNNLLELMSLLNFVMPHMFSSSTSEIRRMFSSKTKSADEQSIYEKERIAHAKQIIKPFILRRVKEEVLKQLPPKKDRIELCAMSEKQEQLYLGLFNRLKKSINNLEKNTEMCNVMMQLRKMANHPLLHRQYYTAEKLKEMSQLMLKEPTHCEANPDLIFEDMEVMTDFELHVLCKQYRHINNFQLDMDLILDSGKFRVLGCILSELKQKGDRVVLFSQFTMMLDILEVLLKHHQHRYLRLDGKTQISERIHLIDEFNTDMDIFVFLLSTKAGGLGINLTSANVVILHDIDCNPYNDKQAEDRCHRVGQTKEVLVIKLISQGTIEESMLKINQQKLKLEQDMTTVDEGDEGSMPADIATLLKTSMGL
notes: SMARCAD1, human, full length; source: Hi5 insect cells (baculovirus), purified (HisTrap HP, Superdex 200)
In the case of B1, the binding result in test [1] and in test [2] was “binds” each time.

The values above are taken from article PMC10287916, “MSH2-MSH3 promotes DNA end resection during homologous recombination and blocks polymerase theta-mediated end-joining through interaction with SMARCAD1 and EXO1” (Nucleic Acids Research, 2023).
